Data taken from US20030100501A1, “Q4N2NEG2 enhances CFTR activity” (Case Western Reserve University, priority 2001, published 2003).
Square brackets hold non-standard residues; d marks the D form. Ends that are not written are not given here. Nle = CCCC[C@H](N)C(=O)O

Key:
[1] = biological target: T1, wt-CFTR channel (Homo sapiens, UniProt P13569); experiment: Single channel recording of CFTR channels reconstituted in planar lipid bilayer, peptide added to cis (intracellular) side; format: biochemical
T1 construct: expressed in transfected cells; host or cells: 293-EBNA HEK cells (Invitrogen) transfected with pCEP4(wt); microsomal membrane vesicles
T1 sequence (P13569 whole entry): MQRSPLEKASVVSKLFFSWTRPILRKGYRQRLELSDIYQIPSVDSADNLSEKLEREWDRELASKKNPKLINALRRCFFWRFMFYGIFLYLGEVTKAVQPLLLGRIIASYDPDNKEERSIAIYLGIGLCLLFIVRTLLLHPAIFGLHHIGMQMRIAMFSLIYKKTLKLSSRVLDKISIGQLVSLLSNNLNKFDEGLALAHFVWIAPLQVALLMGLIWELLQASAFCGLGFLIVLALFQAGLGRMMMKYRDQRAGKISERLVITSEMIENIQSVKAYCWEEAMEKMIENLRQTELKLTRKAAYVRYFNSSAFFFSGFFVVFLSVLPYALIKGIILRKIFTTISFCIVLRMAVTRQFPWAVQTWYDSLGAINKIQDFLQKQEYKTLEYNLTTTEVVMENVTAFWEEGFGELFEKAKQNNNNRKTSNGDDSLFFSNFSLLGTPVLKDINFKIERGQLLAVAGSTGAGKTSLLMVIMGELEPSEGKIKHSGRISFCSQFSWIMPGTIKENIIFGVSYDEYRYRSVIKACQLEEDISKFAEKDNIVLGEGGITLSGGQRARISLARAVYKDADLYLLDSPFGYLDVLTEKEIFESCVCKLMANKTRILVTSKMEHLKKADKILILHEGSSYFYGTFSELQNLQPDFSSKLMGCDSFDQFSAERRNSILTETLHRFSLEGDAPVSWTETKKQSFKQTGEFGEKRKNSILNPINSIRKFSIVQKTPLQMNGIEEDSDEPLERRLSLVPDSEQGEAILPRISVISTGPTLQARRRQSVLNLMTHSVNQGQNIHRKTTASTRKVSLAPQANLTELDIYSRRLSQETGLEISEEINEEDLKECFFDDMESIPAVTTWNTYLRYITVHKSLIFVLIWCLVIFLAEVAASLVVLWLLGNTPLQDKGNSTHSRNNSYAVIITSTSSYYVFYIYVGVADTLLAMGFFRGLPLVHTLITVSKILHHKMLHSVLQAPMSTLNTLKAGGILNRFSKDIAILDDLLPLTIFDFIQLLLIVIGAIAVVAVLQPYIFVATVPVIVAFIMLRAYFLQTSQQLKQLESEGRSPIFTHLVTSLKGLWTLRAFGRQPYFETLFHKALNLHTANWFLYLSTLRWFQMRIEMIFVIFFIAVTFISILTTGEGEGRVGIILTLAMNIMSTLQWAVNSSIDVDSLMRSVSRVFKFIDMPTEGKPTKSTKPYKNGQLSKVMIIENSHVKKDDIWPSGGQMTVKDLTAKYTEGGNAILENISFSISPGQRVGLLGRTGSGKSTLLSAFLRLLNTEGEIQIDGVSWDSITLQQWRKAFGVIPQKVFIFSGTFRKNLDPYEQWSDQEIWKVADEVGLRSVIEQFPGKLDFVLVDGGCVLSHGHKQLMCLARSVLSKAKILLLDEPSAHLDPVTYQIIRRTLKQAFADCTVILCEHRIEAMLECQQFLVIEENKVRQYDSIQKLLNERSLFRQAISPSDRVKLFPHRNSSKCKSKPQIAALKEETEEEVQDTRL
Text: The activating peptide of Q4N2NEG2 was created by substituting glutamine residues for glutamic acid residues at four sites and asparagines for aspartic acid residues at two sites of the authentic NEG2 peptide sequence […] (SEQ ID NO: 7). In addition, a serine residue was substituted for cysteine, to prevent peptide dimerization, and norleucine was substituted for methionine, to prevent oxidation. These changes create a peptide with reduced chemical reactivity and high predicted helical structure, confirmed by circular dichroism, as well as reduced net negative charge (from −9 to −3). […] At concentrations of 4-6 μM Po of CFTR doubles.
To test whether the Q4N2NEG2 polypeptide is responsible for increasing the open probability of the CFTR channel, synthetic Q4N2NEG2, a 22 amino acid peptide, was added to the cis-intracellular side of single CFTR channels captured in the planar lipid bilayer (FIG. 1). […] During stimulation, the open probability doubles and more transitions are observed between the open and closed states (FIG. 1B). The open probability observed in 5 experiments at 4 μM concentration Q4N2NEG2 is shown to be increased by about two-fold in the graph (FIG. 1C).
The wt CFTR cDNA was subcloned into an Epstein-Barr virus-based episomal eukaryotic expression vector, pCEP4 (Invitrogen, San Diego, Calif.), between the Nhe1 and Xho1 restriction sites.
A human embryonic kidney cell line (293-EBNA HEK; Invitrogen) was used for transfection and expression of the CFTR proteins (Ma et al., 1997, Ma et al., 1996, Xie et al., 1995). The HEK-293 cell line contains a pCMV-EBNA vector, which constitutively expresses the Epstein-Barr virus nuclear antigen-1 (EBNA-1) gene product and increases the transfection efficiency of Epstein-Barr virus-based vectors. The cells were maintained in Dulbecco's Modified Eagle Medium with 10% FBS and 1% L-glutamine. Geneticin (G418, 250 (g/ml) was added to the cell culture medium to maintain selection of the cells containing the pCMV-EBNA vector. Lipofectamine reagent (Life Technologies, Inc) in Optimem media (serum-free) was used to transfect the HEK-293 cells with pCEP4(wt). After 5 hours, serum was added to the media (10% final serum concentration). Twenty-four hours after transfection, the transfection media was replaced with fresh media. The cells were harvested two days after transfection and microsomal membrane vesicles were prepared for single channel measurements in the lipid bilayer reconstitution system.
HEK-293 cells transfected with pCEP4(CFTR) were harvested and homogenized using a combination of hypotonic lysis and Dounce homogenization in the presence of protease inhibitors (Ma et al., 1997, Ma et al., 1996, Xie et al., 1995). […]
Lipid bilayer membranes were formed across an aperture of ˜200 (m diameter with a mixture of phosphatidylethanolamine:phosphatidylserine:cholesterol in a ratio of 5:5:1. The lipids were dissolved in decane at a concentration of 33 mg/ml. The recording solutions contained: cis (intracellular), 200 mM CsCl, 1 mM MgCl2, 2 mM ATP, and 10 mM HEPES-Tris (pH 7.4); trans (extracellular), 50 mM CsCl, 10 mM HEPES-Tris (pH 7.4). Vesicles (1-4 (1) containing wild-type CFTR were added to the cis solution. The PKA catalytic subunit was present at a concentration of 50 units/ml in the cis solution unless noted otherwise. Single channel currents were recorded with an Axopatch 200A patch clamp unit (Axon Instruments). […]

[2] = biological target: T2, mutant G551D CFTR (Homo sapiens, UniProt P13569, G551D); experiment: Planar lipid bilayer open probability of mutant CFTR; format: biochemical
T2 construct: expressed in transfected cells; host or cells: 293-EBNA HEK cells (inferred: the methods describe this line for 'the CFTR proteins')
T2 sequence (P13569 whole entry G551D): as the sequence (P13569 whole entry) above, with G551D counted along it
Text: The Q4 N2 NEG2 peptide sequence has been tested on one mutant form of CFTR, G551D, which reaches the plasma membrane. In the planar lipid bilayer, Q4N2NEG2 increased the open probability of G551 by about threefold. Thus, this peptide is useful to stimulate channel activity in mutant forms of CFTR that reach the plasma membrane.
Lipid bilayer membranes were formed across an aperture of ˜200 (m diameter with a mixture of phosphatidylethanolamine:phosphatidylserine:cholesterol in a ratio of 5:5:1. The lipids were dissolved in decane at a concentration of 33 mg/ml. The recording solutions contained: cis (intracellular), 200 mM CsCl, 1 mM MgCl2, 2 mM ATP, and 10 mM HEPES-Tris (pH 7.4); trans (extracellular), 50 mM CsCl, 10 mM HEPES-Tris (pH 7.4). Vesicles (1-4 (1) containing wild-type CFTR were added to the cis solution. The PKA catalytic subunit was present at a concentration of 50 units/ml in the cis solution unless noted otherwise. Single channel currents were recorded with an Axopatch 200A patch clamp unit (Axon Instruments). The currents were sampled at 1-2.5 ms/point. Single channel data analyses were performed with pClamp and TIPS softwares.

GLEISEQINQQNLKQSFFNDLE (Ac-GLEISEQINQQNLKQSFFND[Nle]E; not fully specified (C-terminus)) [Q4N2NEG2, synthetic 22 amino acid peptide derived from NEG2 with four Glu to Gln, two Asp to Asn, Cys to Ser, Met to norleucine substitutions]
increase in open probability (Po) of CFTR channel ([1]; 4 μM peptide, summary of 5 experiments (FIG. 1C)): about two-fold | inhibitory activity on CFTR channel ([1]; any experiment at any concentration of peptide): No inhibitory activity | stimulation of channel activity ([1]; concentration ranging 0.5 to 14 μM, cis side): marked dose-related stimulation | Po of CFTR ([1]; peptide concentrations of 4-6 μM, cis side): doubles | open probability during stimulation, single wt-CFTR channel ([1]; single channel trace, FIG. 1A/1B, 4 μM): doubles | increase in open probability of G551D CFTR [2]: about threefold
